Values belong to the molecule of their own block, whether it stands above or below them.
Assays:
[1] = target: recombinant human EDA protein (extra-domain A of fibronectin), His-tagged (human) (UniProt P02751); experiment: flow cytometry, CD8+ control PSMA CAR-T cells incubated with soluble human His-EDA (50 µg/ml per legend paragraph 32), anti-His-APC; light grey histogram, lower number of the panel humanEDA, CD8 row [cont.) C]
[2] = target: recombinant human EDA protein (extra-domain A of fibronectin), His-tagged (human) (UniProt P02751); experiment: flow cytometry, CD4+ control PSMA CAR-T cells incubated with soluble human His-EDA (50 µg/ml per legend paragraph 32), anti-His-APC; light grey histogram, lower number of the panel humanEDA, CD4 row [cont.) C]
[3] = target: recombinant mouse EDA protein (extra-domain A of fibronectin), His-tagged (mouse) (UniProt P11276); experiment: flow cytometry, CD8+ control PSMA CAR-T cells incubated with soluble mouse His-EDA (50 µg/ml per legend paragraph 32), anti-His-APC; light grey histogram, lower number of the panel mouseEDA, CD8 row [cont.) C]
Sequence of recombinant mouse EDA protein (extra-domain A of fibronectin), His-tagged (mouse) (P11276 1721-1810 limits assumed): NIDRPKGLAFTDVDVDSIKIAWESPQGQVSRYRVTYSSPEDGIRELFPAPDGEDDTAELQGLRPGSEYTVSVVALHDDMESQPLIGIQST

[4] = target: recombinant mouse EDA protein (extra-domain A of fibronectin), His-tagged (mouse) (UniProt P11276); experiment: flow cytometry, CD4+ control PSMA CAR-T cells incubated with soluble mouse His-EDA (50 µg/ml per legend paragraph 32), anti-His-APC; light grey histogram, lower number of the panel mouseEDA, CD4 row [cont.) C]
[5] = target: T1, recombinant mouse EDA protein (extra-domain A of fibronectin), His-tagged (mouse, UniProt P11276 1721-1810); experiment: IFN-gamma release (ELISA) by CAR-T cells on EDA-coated plates, 48 h (functional read-out, not direct binding)
T1 construct: Recombinant protein carrying a His tag; also called murine EDA; EDA (m)
T1 sequence (P11276 1721-1810 limits assumed): as above
Description: Also CAR-T cells were plated for 24 h in the presence of irradiated PM299L-EDA and PM299L-Thy1.1 cells. The number of IFN-γ producing cells was measured by ELISPOT as described by Lozano et al. (Lozano T et al., 2019). CAR-T cell proliferation and IFN-γ production were measured by 3H-thymidine incorporation (0.5 μCi per well) and ELISA, respectively, as described by Casares et al. (Casares N et al., 2010). In some cases, CAR-T cell proliferation was measured by Cell trace violet (CTV) dilution assay; Lymphocytes were incubated with the dye (5 μM) for 15 minutes at 37° C. and washed with RPMI 10% FBS. 8×10⁵ labelled lymphocytes were plated and co-incubated with PM299L-EDA^high and PM299L-Thy1.1 tumor cells at a ratio of 1:1 for 72 hours at 37° C. Subsequently, the proliferating population (measured by CTV dilution) was analyzed within GFP+ lymphocytes. The proliferation index was calculated as the ratio between proliferating cells in the presence of tumor cells expressing EDA (PM299L-EDA^high) and the number of proliferating cells in the presence of tumor cells not expressing EDA (PM299L. Thy1.1) at the end of the co-culture.
EDA CAR-T cells were generated by retroviral transduction of CD4⁺ or CD8⁺ T cells with the corresponding retrovirus. Five days after infection, T cells were analyzed by flow cytometry. […] IFN-g released to the culture supernatant was measured by ELISA.

[6] = target: T2, recombinant human EDA protein (extra-domain A of fibronectin), His-tagged (human, UniProt P02751 1722-1811); experiment: Bio-Layer Interferometry (Octet N1), scFv F8 on AR2G biosensors, soluble hEDA at 1, 2, 4 and 8 uM; table column Kd (1/s) [cont.) E]
T2 construct: Recombinant protein carrying a His tag; also called hEDA; EDA (h)
T2 sequence (P02751 1722-1811 limits assumed): as the sequence (P11276 1721-1810 limits assumed) above, with R44H, D54E, I87T counted along it
Source text: (§1) A DNA sequence coding for the scFv recombinant antibody fragment F8 (Rybak J N et al., 2007) was cloned in pET20b plasmid (Novagen), which enables expression of fusion proteins carrying six histidine residues at the carboxyl terminus. The resulting plasmid was transfected into BL21(DE3) cells for the expression of the recombinant scFv which was purified by affinity chromatography using protein A Sepharose (Amersham Biosciences) according to the manufacturer's instructions. Purified antibody fragments were analyzed by Coomassie and Western blot using anti-His antibodies. Recognition of EDA protein by the purified scFv F8 fragment was tested by ELISA using plates coated with recombinant EDA protein produced as described previously (Lasarte J J et al., 2007). The equilibrium dissociation constant (KD) of scFv F8 to soluble human and mouse EDAs was calculated by Bio-Layer Interferometry (BLI) using an Octet N1 (Sartorius) (FIG. 13). The scFv F8 was coated to the AR2G Biosensors (Fortébio) following manufacturer's instructions.

[7] = target: T2, recombinant human EDA protein …; experiment: Bio-Layer Interferometry (Octet N1), scFv F8 on AR2G biosensors, soluble EDA
Description: as §1, with “The” for “A DNA sequence coding for the scFv recombinant antibody fragment F8 (Rybak J N et al., 2007) was cloned in pET20b plasmid (Novagen), which enables expression of fusion proteins carrying six histidine residues at the carboxyl terminus. The”
(§2) To evaluate the functionality of the CAR construct, EDA CAR-T cells were cultured in EDA coated plates for 48 h. Both CD4+ and CD8+ EDA CAR-T, but not PSMA CAR-T cells produced high amounts of IFN-γ (FIG. 3D) and proliferated in response to EDA (FIG. 3E). […] This discrepancy could be due to the methodological differences between assays. Indeed, in the binding experiments EDA proteins are added in solution and bind to the CAR-T cells directly. […]

[8] = target: T1, recombinant mouse EDA protein …; experiment: as above
Description: as §1, with “The” for “A DNA sequence coding for the scFv recombinant antibody fragment F8 (Rybak J N et al., 2007) was cloned in pET20b plasmid (Novagen), which enables expression of fusion proteins carrying six histidine residues at the carboxyl terminus. The”
as §2

[9] = target: T1, recombinant mouse EDA protein …; experiment: Bio-Layer Interferometry (Octet N1), scFv F8 on AR2G biosensors, soluble mEDA at 1, 2, 4 and 8 uM; table column Kd (1/s) [cont.) E]
Source text: as §1

Sequence of recombinant human EDA protein (extra-domain A of fibronectin), His-tagged (human) (P02751 1722-1811 limits assumed): as the sequence (P11276 1721-1810 limits assumed) above, with R44H, D54E, I87T counted along it

- MFI (mean fluorescence intensity) [1]: 203
- MFI (mean fluorescence intensity) [2]: 269
- MFI (mean fluorescence intensity) [3]: 46
- MFI (mean fluorescence intensity) [4]: 49
Molecule: PSMA CAR (anti-human PSMA scFv from mouse hybridoma J591 in the murine 4-1BB-CD3zeta cassette) on mouse T cells

B1: chimeric EDA CAR with anti-EDA C27 scFv (VH/VL of antibody 27A12.70) in the murine 4-1BB-CD3zeta cassette, on mouse T cells (other)
chain: DVQLQESGPDLVKPSQSLSLTCTVTGYSITSGYSWHWIRQFPGNKLEWMGYIHYSGIANYNPSLKSRISITRDTSKNHFFLQLNSVTTEDTATYYCATEKTGFFDYWGQGTTLTVSSGGGGSGGGGSGGGGSGGGGSDVVMTQTPLSLPVSLGDQASISCRSSQSLVHSNGNTYLHWYLQKPGQSPKLLIYKVSNRFSGVPDRFSGSGSGTDFTLKISRVEAEDLGVYFCSQSAHVPPTFGGGTKLEIKR
notes: also called C27 EDA CAR-T; clone C27; not shown: limits on that entry
- binding result [5]: no binding (tested: 5 µg/ml coated (FIG. 14 legend))

- koff [6]: 0.000532 s⁻¹
- Kd [7]: 77.6 nM
- Kd [8]: 99.5 nM
- koff [9]: 0.000342 s⁻¹
B2: anti-EDA F8 scFv (purified recombinant antibody fragment) (scFv)
scFv: EVQLLESGGGLVQPGGSLRLSCAASGFTFSVMKMSWVRQAPGKGLEWVSAISGSGGSTYYADSVKGRFTISRDNSKNTLYLQMNSLRAEDTAVYYCAKSTHLYLFDYWGQGTLVTVSSGGGGSGGGGSGGGGSGGGGSEIVLTQSPGTLSLSPGERATLSCRASQSVSNAFLAWYQQKPGQAPRLLIYGASSRATGIPDRFSGSGSGTDFTLTISRLEPEDFAVYYCQQMRGRPPTFGQGTKVEIKHHHHHH
notes: Expressed in E. coli BL21(DE3) from pET20b and purified on protein A Sepharose; also called scFv F8; scFv (F8)
